{"source": "patent US20210162028A1", "about": "“Methods for Inducing Intermittent Fasting and Modulating Autophagy” (The Hong Kong Polytechnic University, priority 2019, published 2021)", "molecules": {"B1": {"name": "BHA: arginase-ABD fusion protein, SEQ ID NO: 75 (protein)", "chain": "MKPISIIGVPMDLGQTRRGPDMGPSAMRYAGVIERLERLHYDIEDLGDIPIGKAERLHEQGDSRLRNLKAVAEANEKLAAAVDQVVQRGRFPLVLGGDHSIAIGTLAGVAKHYERLGVIWYDAHGDVNTAETSPSGNIHGMPLAASLGFGHPALTQIGGYCPKIKPEHVVLIGVRSLDEGEKKFIREKGIKIYTMHEVDRLGMTRVMEETIAYLKERTDGVHLSLDLDGLDPSDAPGVGTPVIGGLTYRESHLAMEMLAEAQIITSAEFVEVNPILDERNKTASVAVALMGSLFGEKLMHHHHHHAQHDEAVDANSLAEAKVLANRELDKYGVSDYYKNLINNAKTVEGVKALIDEILAALP", "modifications": "BHA Fusion Protein, Synthesized in the Lab"}, "B2": {"name": "BAH: arginase-ABD fusion protein, SEQ ID NO: 76 (protein)", "chain": "MKPISIIGVPMDLGQTRRGPDMGPSAMRYAGVIERLERLHYDIEDLGDIPIGKAERLHEQGDSRLRNLKAVAEANEKLAAAVDQVVQRGRFPLVLGGDHSIAIGTLAGVAKHYERLGVIWYDAHGDVNTAETSPSGNIHGMPLAASLGFGHPALTQIGGYCPKIKPEHVVLIGVRSLDEGEKKFIREKGIKIYTMHEVDRLGMTRVMEETIAYLKERTDGVHLSLDLDGLDPSDAPGVGTPVIGGLTYRESHLAMEMLAEAQIITSAEFVEVNPILDERNKTASVAVALMGSLFGEKLMAQHDEAVDANSLAEAKVLANRELDKYGVSDYYKNLINNAKTVEGVKALIDEILAALPHHHHHH", "modifications": "BAH Fusion Protein, Synthesized in the Lab"}, "B3": {"name": "PEGylated His-rhArg: PEGylated His-tagged recombinant human arginase (SEQ ID NO: 101) (protein)", "chain": "MHHHHHHMSAKSRTIGIIGAPFSKGQPRGGVEEGPTVLRKAGLLEKLKEQECDVKDYGDLPFADIPNDSPFQIVKNPRSVGKASEQLAGKVAEVKKNGRISLVLGGDHSLAIGSISGHARVHPDLGVIWVDAHTDINTPLTTTSGNLHGQPVSFLLKELKGKIPDVPGFSWVTPCISAKDIVYIGLRDVDPGEHYILKTLGIKYFSMTEVDRLGIGKVMEETLSYLLGRKKRPIHLSFDVDGLDPSFTPATGTPVVGGLTYREGLYITEEIYKTGLLSGLDIMEVNPSLGKTPEEVTRTVNTAVAITLACFGLAREGNHKPIDYLNPPK", "modifications": "PEGylated; His-rhArg, Synthesized in Lab"}, "B4": {"name": "ADI-ABD: arginine deiminase fused with albumin binding domain (SEQ ID NO: 107) (protein)", "chain": "MHHHHHHDEAVDANSLAEAKVLANRELDKYGVSDYYKNLINNAKTVEGVKALIDEILAALPSGSNNNNNNGSGGSVFDSKFKGIHVYSEIGELESVLVHEPGREIDYITPARLDELLFSAILESHDARKEHKQFVAELKANDINVVELIDLVAETYDLASQEAKDKLIEEFLEDSEPVLSEEHKVVVRNFLKAKKTSRELVEIMMAGITKYDLGIEADHELIVDPMPNLYFTRDPFASVGNGVTIHYMRYKVRQRETLFSRFVFSNHPKLINTPWYYDPSLKLSIEGGDVFIYNNDTLVVGVSERTDLQTVTLLAKNIVANKECEFKRIVAINVPKWTNLMHLDTWLTMLDKDKFLYSPIANDVFKFWDYDLVNGGAEPQPVENGLPLEGLLQSIINKKPVLIPIAGEGASQMEIERETHFDGTNYLAIRPGVVIGYSRNEKTNAALEAAGIKVLPFHGNQLSLGMGNARCMSMPLSRKDVKW", "modifications": "ADI-ABD, Synthesized in the Lab"}, "B5": {"name": "N-ABD094-rhArg-Co^2+: SEQ ID NO: 50 (cobalt substituted); Mn^2+ substituted with Co^2+ in the ABD-rhArg fusion protein (protein)", "chain": "MHHHHHHDEAVDANSLAEAKEAANAELDSYGVSDFYKRLIDKAKTVEGVEALKDAILAALPSGSNNNNNNGSGGMSAKSRTIGIIGAPFSKGQPRGGVEEGPTVLRKAGLLEKLKEQECDVKDYGDLPFADIPNDSPFQIVKNPRSVGKASEQLAGKVAEVKKNGRISLVLGGDHSLAIGSISGHARVHPDLGVIWVDAHTDINTPLTTTSGNLHGQPVSFLLKELKGKIPDVPGFSWVTPCISAKDIVYIGLRDVDPGEHYILKTLGIKYFSMTEVDRLGIGKVMEETLSYLLGRKKRPIHLSFDVDGLDPSFTPATGTPVVGGLTYREGLYITEEIYKTGLLSGLDIMEVNPSLGKTPEEVTRTVNTAVAITLACFGLAREGNHKPIDYLNPPK", "modifications": "Co2+ substituted for Mn2+; N-ABD094-rhArg, Synthesized in the Lab", "notes": "Mn^2+ substituted with Co^2+ in the ABD-rhArg fusion protein"}}, "key": {"[1]": {"assay": "Half-life / therapeutic duration in circulation", "set-up": "species or system mice", "details": "mouse, in vivo", "text": "As used herein, the term “half-life” or “½-life” refers to the time that would be required for the concentration of an agent, e.g., a fusion protein or arginine depleting agent as described herein, to fall by half in vitro or in vivo, for example, after injection into a mammal. In certain instances, the concentration of plasma arginine, after injection, is used herein as a proxy indicator of the half-life of the agent. In such instances, the term “therapeutic duration” is used to refer to the length of time a specified dosage of the arginine depleting agent is able to maintain the plasma concentration of arginine below a specified threshold concentration that a desired therapeutic effect is observed. In certain embodiments, the threshold concentration of plasma arginine is below 50 μM, below 40 μM, below 30 μM, below 20 μM, below 10 μM, below 5 μM, below 3 μM, or at a concentration below the detection limit of conventional analytical instrumentation.\nImportantly, the present invention used a new ABD fusion approach to join an ABD and an arginase together so that arginase activity can be retained. Stable and soluble arginase-ABD fusion molecules that can bind to FcRn in a pH-dependent manner were successfully generated, allowing for efficient endosomal recycling. […] Taken together, a variety of different approaches are available for fine-tuning the pharmacokinetic properties of arginases, ensuring appropriate residence time in circulation for different disease conditions. Another key issue in the development of any therapeutic protein is to minimize immunogenicity to avoid adverse effects. Thus, the observed low immunogenicity of human arginase and the successful deimmunization of ABD (e.g. ABD094), which was also used in the present disclosure as gene fusion partner to extend the in vivo half-life, are important."}, "[2]": {"assay": "Glucose tolerance test (GTT)", "format": "in vivo, mouse", "details": "DIO C57BL/6J male mice on HFD; about 250 U once a week; at 6 week"}, "[3]": {"assay": "Daily food intake / 7-day intermittent fasting cycle in mice", "format": "in vivo, mouse", "text": "One of the most noticeable effects of intermittent fasting is reduction of bodyweight. […] Specifically, C57BL/6J, which is the most commonly used mouse strain for polygenic obesity model, was used in the study. It is well-reported that C57BL/6J male mice feeding on a high-fat diet will have prominent weight gain, become obese and develop hyperinsulinemia, hyperglycemia, impaired glucose tolerance and insulin resistance [Gallou-Kabani et al., 2007, Obesity 15(8):1996-2005]. Obesity was induced in C57BL/6J male mice via feeding ad libitum a high-fat diet containing 60 kcal % fat (HFD; Research Diets, D12492) for 12-14 weeks starting from 5-week old. These mice are referred as diet-induced obese (DIO) mice. DIO mice were stratified according to bodyweight into 2 groups. […] Both groups of mice continued to feed ad libitum on the HFD throughout the treatment period. One group of age-matched C57BL/6J male mice feeding ad libitum on an ordinary rodent chow diet (CD; LabDiet, 50IF/6F) and injected with vehicle served as the lean control [CD (vehicle) group]. Food intake and bodyweight of mice were measured daily. […] DIO mice were injected with rhArg on Day 0, which was Day 7 of the previous cycle. Similarly, Day 7 of the cycle shown in FIG. 1B was Day 0 of the next cycle. […] Bodyweight gain is one of the biomarkers related to aging.\nC57BL/6J male mice were fed a high-fat diet from 5-week old for 12 weeks. They were then stratified into 3 groups according to their bodyweight and individually caged: (i) one group of mice received i.p. injection of 600 U N-ABD094-rhArg (SEQ ID NO: 50) once a week [HFD (rhArg) group] and was fed ad libitum the HFD for 5 weeks; (ii) one group of mice received i.p. injection of saline once a week, and was fed a predetermined amount of HFD on each day to artificially create a 7-day intermittent fasting cycle that mimics the pattern of food intake of mice administered once a week with rhArg [HFD (artificial IF) group)]; (iii) one group of mice was injected with saline once a week and was fed ad libitum the HFD [HFD (vehicle) group]."}, "[4]": {"assay": "Bodyweight of treated mice", "format": "in vivo, mouse"}, "[5]": {"assay": "Insulin tolerance test (ITT)", "format": "in vivo, mouse", "details": "DIO C57BL/6J male mice on HFD; about 250 U once a week; at 7 week", "text": "In terms of reversing insulin resistance on pre-existing obese mice, insulin tolerance test (ITT) was employed (FIG. 59).\nIn terms of reversing insulin resistance on pre-existing obese mice, insulin tolerance test (ITT) was employed (FIG. 68A)."}, "[6]": {"assay": "Fat pad and organ mass at end of treatment", "format": "in vivo, mouse", "details": "DIO C57BL/6J male mice on HFD; about 250 U once a week, 8 weeks"}, "[7]": {"details": "DIO C57BL/6J male mice on HFD, about 250 U i.p. once a week, 8 weeks"}, "[8]": {"details": "DIO C57BL/6J male mouse on HFD, 50 U i.p. once a week, 2 weeks, n=1"}}}
{"molecule": "B1", "values": [{"measurement": "Therapeutic duration (and half-life)", "setting": "[1]", "result": "surprisingly high therapeutic duration (and half-life)"}]}
{"molecule": "B2", "values": [{"measurement": "Therapeutic duration (and half-life)", "setting": "[1]", "result": "surprisingly high therapeutic duration (and half-life)"}]}
{"molecule": "B3", "values": [{"measurement": "Glucose tolerance in GTT", "setting": "[2]", "result": "significantly improved glucose tolerance"}, {"measurement": "Pattern of food intake (intermittent fasting cycles)", "setting": "[3]; [7]", "result": "repetitive 7-day intermittent fasting cycles"}, {"measurement": "Total food intake per week, less than HFD (vehicle) group", "setting": "[3]; [7]", "result": "about 28%"}, {"measurement": "Bodyweight reached under treatment", "setting": "[4]; DIO C57BL/6J male mice on HFD, about 250 U i.p. once a week, from 50 g within 8 weeks", "result": 30, "unit": "g"}, {"measurement": "Insulin sensitivity in ITT", "setting": "[5]", "result": "marked increase in insulin sensitivity"}, {"measurement": "Fat pad mass (perirenal, inguinal WAT, interscapular BAT) and liver mass", "setting": "[6]", "result": "dramatically reduced to a weight similar to that of the vehicle-treated lean control mice"}, {"measurement": "Kidney and heart mass", "setting": "[6]", "result": "significantly reduced"}]}
{"molecule": "B4", "values": [{"measurement": "Time of minimum level of food intake in the cycle", "setting": "[3]; DIO C57BL/6J male mice on HFD, i.p. once a week", "result": "after the first day"}, {"measurement": "Pattern of food intake (intermittent fasting cycle)", "setting": "[3]; DIO C57BL/6J male mouse on HFD, 5 U i.p. once a week, 2 weeks, n=1", "result": "induce a 7-day intermittent fasting cycle"}, {"measurement": "Bodyweight reached under treatment", "setting": "[4]; DIO C57BL/6J male mouse on HFD, 5 U i.p., first cycle, from 47 g in 2 days, n=1", "result": "about 44 g"}]}
{"molecule": "B5", "values": [{"measurement": "Length of fasting period in the 7-day intermittent fasting cycle", "setting": "[3]; [8]", "result": 4, "unit": "days"}, {"measurement": "Pattern of food intake (intermittent fasting cycle)", "setting": "[3]; [8]", "result": "induce a 7-day intermittent fasting cycle"}, {"measurement": "Bodyweight reached under treatment", "setting": "[4]; DIO C57BL/6J male mouse on HFD, 50 U i.p. once a week, from 45 g within 2 weeks, n=1", "result": 32, "unit": "g"}]}
